Here are results for 8 molecules from article PMC7374468, “Characterization of highly active 2-keto-3-deoxy-L-arabinonate and 2-keto-3-deoxy-D-xylonate dehydratases in terms of the biotransformation of hemicellulose sugars to chemicals” (Applied Microbiology and Biotechnology, 2020).

One data set has as its target T1, PpD-KdpD (Pseudomonas putida, UniProt Q88J13).
T1 construct: gene PP_2836; C-terminal His6 tag (kept), pET vector, E. coli BL21(DE3), HisTrap purified
T1 sequence (Q88J13 1-405): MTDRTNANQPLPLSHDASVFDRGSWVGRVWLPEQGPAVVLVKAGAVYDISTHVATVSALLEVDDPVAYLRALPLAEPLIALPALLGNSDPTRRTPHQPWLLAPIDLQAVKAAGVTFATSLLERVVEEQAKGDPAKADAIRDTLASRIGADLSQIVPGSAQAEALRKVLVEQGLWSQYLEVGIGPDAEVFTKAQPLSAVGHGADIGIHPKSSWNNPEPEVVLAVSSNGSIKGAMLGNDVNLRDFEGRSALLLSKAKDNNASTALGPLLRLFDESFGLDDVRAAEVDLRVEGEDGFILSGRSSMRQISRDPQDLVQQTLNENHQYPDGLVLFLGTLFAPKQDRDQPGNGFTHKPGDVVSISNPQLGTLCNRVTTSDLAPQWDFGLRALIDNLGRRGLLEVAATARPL
Kind of data set: coupled assay with PpKGSADH, NADH at […] nm. The class given is biochemical. Particulars: read-out: I50.

Substrate in data set [1]: O=C(O)C(=O)C[C@H](O)CO
Kind of data set: purified protein. The class given is biochemical, Cupriavidus necator. The following applies: 2 mM NAD+ for coupling enzyme, 5 mM MgCl2, 50 mM HEPES pH 7.5, 25 °C.

Substrate in data set [2]: O=C(O)C(=O)C[C@@H](O)CO
Kind of data set: purified protein, by the assay type. Also on record: coupled assay with PpKGSADH, NADH formation at 340 nm, Michaelis-Menten fit, 25 °C, pH 7.5. The following applies: pH 7.5; 25.0 °C. The protocol:
(§1) To determine dehydratase activity, a coupled-assay with PpKGSADH as auxiliary enzyme was used to link the oxidation of KGSA to α-KG using NAD^+, as was described in a previous study (Beer et al. [2017]). The measurement was performed in a 96-well F-bottom plate (Greiner Bio-One, Germany). 20 μL of a diluted enzyme was added to a 96-well plate. A total of 180 μL of reaction solution containing different concentrations of either D-KDP or L-KDP with 0.5 U/mL PpKGSADH, 2 mM NAD^+, 5 mM MgCl2, 50 mM HEPES pH 7.5 (end concentration) were added subsequently. The measurement was performed with a Multiskan spectrophotometer (Thermo Scientific, Germany) by measuring the development of NADH at 340 nm at 25 °C. Enzyme activity (kcat) was defined as the number of NADH molecules formed per molecule of enzyme per second. Measurements were performed in triplicate.

Substrate in data set [3]: O=C(O)C(=O)C[C@H](O)CO
Kind of data set: purified protein. The class given is biochemical, Herbaspirillum seropedicae. The following applies: 2 mM NAD+ for coupling enzyme, 5 mM MgCl2, 50 mM HEPES pH 7.5, 25 °C.

Substrate in data set [4]: O=C(O)C(=O)C[C@@H](O)CO
Description: purified protein. The class given is biochemical, Variovorax paradoxus. Particulars: 2 mM NAD+ for coupling enzyme, 5 mM MgCl2, 50 mM HEPES pH 7.5, 25 °C.

Substrate in data set [5]: O=C(O)C(=O)C[C@H](O)CO
Kind of data set: purified protein, by the assay type. On the set-up: coupled assay with PpKGSADH, NADH formation at 340 nm, Michaelis-Menten fit, 25 °C, pH 7.5. Particulars: pH 7.5; 25.0 °C. Here is the method:
as §1

Substrate in data set [6]: O=C(O)C(=O)C[C@@H](O)CO
Description: purified protein. The class given is biochemical, Herbaspirillum seropedicae. Particulars: 2 mM NAD+ for coupling enzyme, 5 mM MgCl2, 50 mM HEPES pH 7.5, 25 °C.

Substrate in data set [7]: O=C(O)C(=O)C[C@H](O)CO
Description: purified protein. The class given is biochemical, Paraburkholderia xenovorans. The following applies: 2 mM NAD+ for coupling enzyme, 5 mM MgCl2, 50 mM HEPES pH 7.5, 25 °C.

Substrate in data set [8]: O=C(O)C(=O)C[C@@H](O)CO
Description: purified protein. Particulars: 2 mM NAD+ for coupling enzyme, 5 mM MgCl2, 50 mM HEPES pH 7.5, 25 °C. In kind it is biochemical, Azospirillum brasilense.

Substrate in data set [9]: O=C(O)C(=O)C[C@H](O)CO
Description: purified protein. In kind it is biochemical, Pseudomonas putida. Particulars: 2 mM NAD+ for coupling enzyme, 5 mM MgCl2, 50 mM HEPES pH 7.5, 25 °C.

On to `O=C(O)[C@H](O)[C@@H](O)[C@H](O)CO` [D-xylonate], for which the IC50 at PpD-KdpD was 75 mM.

B1: CnD-KdpD (Cupriavidus necator H16) (protein)
chain: MALPLTLSATQTLPADGLAGTLVGRAWIPASDGAPAGPAVVVLRPAGVFDISDVAPTMSTLLEQGDPVTVVHNTPGRWIGKLDDLLANTADPRGSDSVARLLAPCDLQVIKAAGVTFAGSLVERVIEEQTKGDPQGAAEVRNRIQALVGERLSRIRPGSREAGELKALLIEHGMWSQYLEVGIGPDAEIFTKAPLLSALGTGTEIGLHPGSAWNNPEPEIVLAINSRGDVLGATLGNDVNLRDFEGRSALLLGKAKDNNGSCAIGPFLRLFDQSLSLDDVRRATVDLRVDGLDGFVLSGTSSMDQITRDPLELAEQVMGATHQYPDGAMLFLGTLFAPVEDRDTAGGGFTHKDGDLVTISSRQLGSLVNRVGRSDRIAPWTFGVRALMANLAARGHTTF
notes: C-terminal His6 tag (kept), pET vector, E. coli BL21(DE3), HisTrap purified; strain given inconsistently (H16 gDNA vs N-1)
Regarding B1, in “purified protein [1]”, the Km (as a rule, the concentration of substrate that gives half-maximal velocity) stood at 230 ± 20 µM; the kcat (in general, the maximal rate divided by the concentration of active sites) amounted to 13.8 ± 0.2 s⁻¹; the kcat/Km (in general, the turnover number divided by the Michaelis constant) came to 58900 ± 400 M⁻¹ s⁻¹. In [2], the Km stood at 2490 ± 200 µM, the kcat stood at 4.24 ± 0.07 s⁻¹ and the kcat/Km was 1700 ± 280 M⁻¹ s⁻¹.

B2: HsD-KdpD (Herbaspirillum seropedicae SmR1) (protein)
chain: MAHTFSLQAHLPEDHAQATLIGRIWQPGVGPVLVRIDADGAYDLTLIAATSSELLELDNPAAAVRSATNMTRIATLQELLDNADAAGRDTSRPWLLAPIDLQAVKASGVTFVASMLERVIEEQARGDAGKAESVRKAITAVIGDNLSSVVPGSPEAARLKEVLLDQGVWSQYLEVGIGPDAEIFTKAQPMSSVGLGDEVGIHPKSAWNNPEPEIVLAINSRGKVVGATLGNDVNLRDFEGRSALLLGKAKDNNASCAVGPFIRLFDANFSIDDVRRAELTMRVDGTEGFTLKGSSSMSMISRDPLQLVEHAIGPNHQYPDGLVLFLGTMFAPTQDRFGPGQGFTHQVADIVTISTPKLGALVNTVNFSDQTAPWTFGLTALFKNLADRKLI
notes: C-terminal His6 tag (kept), pET vector, E. coli BL21(DE3), HisTrap purified
As to B2, in [2], the Km worked out at 3180 ± 180 µM, the kcat was 16.9 ± 0.21 s⁻¹ and the kcat/Km stood at 5320 ± 230 M⁻¹ s⁻¹. In the data set “purified protein [3]”, the Km was found to be 170 ± 10 µM, the kcat worked out at 58.2 ± 0.4 s⁻¹ and the kcat/Km came to 347900 ± 200 M⁻¹ s⁻¹.

B3: VpL-KdpD (Variovorax paradoxus EPS) (protein)
chain: MPKPMNHNLSNPRYRGIFPVVPTTFTEQGALDLESQKRCVDFMIDAGSDGLCILANFSEQFVLSDEEREVLTRTMLEHVKGRVPVIVTTTHYSTKVCAERSRRAQDMGAAMLMVMPPYHGATFRVPEPQIFEFYAGLSDAVSIPIMIQDAPASGTVLSAPFLARMAKEIEHVAYFKIETANAAAKLRELIRLGGDAIEGPWDGEEAITLMPDLDAGATGSMTGGGYPDGIRPIIEAHRAGDRDKAFALYQQWLPLINYENRQAGLLACKSLMKEGGVIACEAPRHPLPAMHPATRAGLIETAKRLDPLVLRWGK
notes: N-terminal His6 tag (kept), pET vector, E. coli BL21(DE3), HisTrap purified
On to B3, for which, in “purified protein [4]”, the Michaelis constant (Km) stood at 150 ± 10 µM, the kcat worked out at 21.8 ± 0.2 s⁻¹ and the kcat/Km turned out to be 146000 ± 200 M⁻¹ s⁻¹.

B4: HsL-KdpD (Herbaspirillum seropedicae SmR1) (protein)
chain: MSTPLYRGVFPVAPTIFDANGKLDLEGQKRAIDFMIDAGSNGLCILANFSEQFVLSDEERVQVQNTVLEHVAGRVPVIVTTTHYGSQICAERSRAAQDAGAAMVMVMPPYHGATFRVPEKQIYEFYKHVSDAIDIPIMIQDAPVAGTPLSAPFLARMAKEIEQVSYFKIETAGAASKLRDLIELGGDAVVGPWDGEEAITLIPDLDAGATGAMTGGGYPDGIRKIVDAYFAGDIEKAAELYMQWLPLINYENRQCGLSACKALMLEGGVIKSDMLRHPQPPLHPKVREGLLRVARRLDPLVLSWGR
notes: as for B3
With B4, in data set [5], the Km amounted to 4410 ± 90 µM, the kcat was found to be 11.38 ± 0.06 s⁻¹ and the kcat/Km amounted to 2580 ± 140 M⁻¹ s⁻¹. Also, in the data set “purified protein [6]”, the Km stood at 180 ± 0 µM, the kcat was 29.6 ± 0.2 s⁻¹ and the kcat/Km amounted to 163900 ± 200 M⁻¹ s⁻¹.

B5: PxD-KdpD (Paraburkholderia xenovorans LB400) (protein)
chain: MSATSPSSFLPDDLGQALLVGRVWRKTDQHEGPSVVVVRGGEVFDITATVPTTADLFDREDAAPLARTAPGVSLGAVAQLIASNLPGAAAPALRLLAPCDVQAIKACGVTFAVSLIERVIEEQAAGDPAKAKEVRDTIASMIGTDLSKIEPGSDAAMKLKAELERRGAWSQYMEVGIGPDAEVFSKSQPMSAVGFGADVGLLAASTWNNPEPEIVLAVNSRGEIVGATLGNDVNLRDIEGRSALLLGKCKDNNGSCAIGPFVRLFDESFSLDSVRTASVALRVEGADDGFVLEGVSHMSEISRDPANLVAQTWGRHHQYPDGFMLFLGTMFSPIKDRDAPGAGFTHHLGDLVTISTPQLGALTNTVRLSTEIEPWTFGVRALYRNLAARGLLASA
notes: C-terminal His6 tag (kept), codon-optimised synthetic gene, E. coli BL21(DE3), HisTrap purified
In the case of B5, in the data set “purified protein [7]”, the Km was 280 ± 10 µM, the kcat is 63.6 ± 0.4 s⁻¹ and the kcat/Km was 229800 ± 200 M⁻¹ s⁻¹. Besides, in data set [2], the Km was 5080 ± 170 µM, the kcat worked out at 18.73 ± 0.15 s⁻¹ and the kcat/Km came out at 3690 ± 180 M⁻¹ s⁻¹.

B6: AbL-KdpD (Azospirillum brasilense) (protein)
chain: MTSSSTPRHRGIFPVVPTTFADTGELDLASQKRAVDFMIDAGSDGLCILANFSEQFAITDDERDVLTRTILEHVAGRVPVIVTTSHYSTQVCAARSLRAQQLGAAMVMAMPPYHGATFRVPEAQIFEFYARVSDAIAIPIMVQDAPASGTALSAPFLARMAREIEQVAYFKIETPGAANKLRELIRLGGDAIEGPWDGEEAITLLADLHAGATGAMTGGGFPDGIRPILEAWREGRHDDAYARYQAWLPLINHENRQSGILTAKALMREGGVIASERPRHPMPELHPDTRAELLAIARRLDPLVLRWAH
notes: N-terminal His6 tag (kept), codon-optimised synthetic gene, E. coli BL21(DE3), HisTrap purified, lower purity
B6: in data set [5], the Km is 6810 ± 350 µM, the kcat came out at 6.65 ± 0.1 s⁻¹ and the kcat/Km is 980 ± 230 M⁻¹ s⁻¹. Also, in the data set “purified protein [8]”, the Km amounted to 190 ± 20 µM, the kcat was determined as 13.6 ± 0.3 s⁻¹ and the kcat/Km is 71300 ± 300 M⁻¹ s⁻¹.

B7: PpD-KdpD (Pseudomonas putida KT2440) (protein)
chain: T1 sequence (Q88J13 1-405)
notes: as for B2
Regarding B7, in “purified protein [9]”, the Km was 350 ± 10 µM, the kcat is 75.9 ± 0.6 s⁻¹ and the kcat/Km is 219900 ± 200 M⁻¹ s⁻¹. Further, in data set [2], the Km stood at 6120 ± 210 µM, the kcat is 19.64 ± 0.17 s⁻¹ and the kcat/Km stood at 3210 ± 190 M⁻¹ s⁻¹.
